Key:
[1] = molecular target: T1, SARS-CoV-2 spike protein receptor-binding domain (RBD) (SARS-CoV-2, UniProt P0DTC2 P0DTC2:319-541); experiment: […]; PBS pH 7.4, room temperature
[2] = molecular target: BSA (UniProt P02769 P02769:25-607)
[3] = molecular target: T1, SARS-CoV-2 spike protein …

BSA, sequence (P02769 25-607, one chain of several): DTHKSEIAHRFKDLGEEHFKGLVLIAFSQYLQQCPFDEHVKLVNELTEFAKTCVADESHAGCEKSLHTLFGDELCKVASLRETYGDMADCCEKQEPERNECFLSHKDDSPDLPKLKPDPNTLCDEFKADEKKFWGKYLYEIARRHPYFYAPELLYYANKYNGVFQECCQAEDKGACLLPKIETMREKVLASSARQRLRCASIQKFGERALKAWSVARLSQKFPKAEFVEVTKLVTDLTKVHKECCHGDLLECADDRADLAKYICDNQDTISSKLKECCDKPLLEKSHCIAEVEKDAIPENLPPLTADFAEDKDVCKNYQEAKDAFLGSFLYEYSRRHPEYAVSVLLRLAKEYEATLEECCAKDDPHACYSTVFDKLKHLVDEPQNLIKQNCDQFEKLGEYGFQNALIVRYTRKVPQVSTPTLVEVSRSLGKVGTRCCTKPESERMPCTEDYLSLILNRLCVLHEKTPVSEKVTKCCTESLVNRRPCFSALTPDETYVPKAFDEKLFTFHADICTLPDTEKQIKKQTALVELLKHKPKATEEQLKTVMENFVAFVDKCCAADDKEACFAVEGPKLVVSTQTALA

| Binder | Kd [1] [nM] | binding result [2] | binding result [3] |
| --- | --- | --- | --- |
| GGGGCTGCTCGGGATTGCGGATATGG (ssDNA) [RBD-46] | 34.7 | no binding | – |
| AGGGGCTGCTCGGGATTGCGGATATGGA (ssDNA) [RBD-45] | – | – | binds |

Source: US20250164487, “METHOD FOR […] ANALYTE USING POLYNUCLEOTIDE” (NATIONAL UNIVERSITY CORPORATION TOKYO UNIVERSITY OF …, published 2025)
